Paper PMC4855633

Target: fibrous bovine collagen I (bovine) (UniProt P02453)
Chain of UniProt P02453 (P02453 162-1217, chain 1 of 2): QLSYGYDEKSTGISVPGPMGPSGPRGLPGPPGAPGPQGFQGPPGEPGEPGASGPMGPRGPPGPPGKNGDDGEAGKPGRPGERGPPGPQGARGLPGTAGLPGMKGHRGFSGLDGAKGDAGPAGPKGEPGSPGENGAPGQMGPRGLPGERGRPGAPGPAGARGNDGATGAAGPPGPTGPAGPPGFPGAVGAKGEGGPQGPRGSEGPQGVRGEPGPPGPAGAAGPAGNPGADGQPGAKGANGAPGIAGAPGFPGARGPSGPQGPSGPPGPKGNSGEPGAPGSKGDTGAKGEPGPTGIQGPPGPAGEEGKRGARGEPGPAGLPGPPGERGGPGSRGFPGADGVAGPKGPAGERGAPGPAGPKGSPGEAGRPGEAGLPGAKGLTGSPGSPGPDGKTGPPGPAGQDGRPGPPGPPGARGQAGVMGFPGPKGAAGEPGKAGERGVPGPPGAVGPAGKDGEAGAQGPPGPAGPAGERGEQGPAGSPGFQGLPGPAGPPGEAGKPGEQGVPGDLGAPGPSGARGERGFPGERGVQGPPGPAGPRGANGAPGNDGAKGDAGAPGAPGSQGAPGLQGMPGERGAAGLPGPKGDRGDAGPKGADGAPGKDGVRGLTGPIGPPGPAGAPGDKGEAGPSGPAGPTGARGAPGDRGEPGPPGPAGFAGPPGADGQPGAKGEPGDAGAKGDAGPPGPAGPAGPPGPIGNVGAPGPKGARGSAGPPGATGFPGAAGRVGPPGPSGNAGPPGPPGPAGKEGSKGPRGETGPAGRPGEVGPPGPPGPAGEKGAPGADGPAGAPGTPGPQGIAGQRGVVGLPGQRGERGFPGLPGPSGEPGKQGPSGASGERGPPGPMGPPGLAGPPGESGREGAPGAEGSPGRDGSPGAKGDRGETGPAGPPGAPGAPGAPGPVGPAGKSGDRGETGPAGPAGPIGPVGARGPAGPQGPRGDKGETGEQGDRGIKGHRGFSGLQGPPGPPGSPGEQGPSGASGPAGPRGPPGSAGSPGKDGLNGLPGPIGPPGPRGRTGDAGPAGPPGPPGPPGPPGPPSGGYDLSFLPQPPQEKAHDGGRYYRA
Chain of UniProt P02453 (P02465 80-1117, chain 2 of 2, further chain): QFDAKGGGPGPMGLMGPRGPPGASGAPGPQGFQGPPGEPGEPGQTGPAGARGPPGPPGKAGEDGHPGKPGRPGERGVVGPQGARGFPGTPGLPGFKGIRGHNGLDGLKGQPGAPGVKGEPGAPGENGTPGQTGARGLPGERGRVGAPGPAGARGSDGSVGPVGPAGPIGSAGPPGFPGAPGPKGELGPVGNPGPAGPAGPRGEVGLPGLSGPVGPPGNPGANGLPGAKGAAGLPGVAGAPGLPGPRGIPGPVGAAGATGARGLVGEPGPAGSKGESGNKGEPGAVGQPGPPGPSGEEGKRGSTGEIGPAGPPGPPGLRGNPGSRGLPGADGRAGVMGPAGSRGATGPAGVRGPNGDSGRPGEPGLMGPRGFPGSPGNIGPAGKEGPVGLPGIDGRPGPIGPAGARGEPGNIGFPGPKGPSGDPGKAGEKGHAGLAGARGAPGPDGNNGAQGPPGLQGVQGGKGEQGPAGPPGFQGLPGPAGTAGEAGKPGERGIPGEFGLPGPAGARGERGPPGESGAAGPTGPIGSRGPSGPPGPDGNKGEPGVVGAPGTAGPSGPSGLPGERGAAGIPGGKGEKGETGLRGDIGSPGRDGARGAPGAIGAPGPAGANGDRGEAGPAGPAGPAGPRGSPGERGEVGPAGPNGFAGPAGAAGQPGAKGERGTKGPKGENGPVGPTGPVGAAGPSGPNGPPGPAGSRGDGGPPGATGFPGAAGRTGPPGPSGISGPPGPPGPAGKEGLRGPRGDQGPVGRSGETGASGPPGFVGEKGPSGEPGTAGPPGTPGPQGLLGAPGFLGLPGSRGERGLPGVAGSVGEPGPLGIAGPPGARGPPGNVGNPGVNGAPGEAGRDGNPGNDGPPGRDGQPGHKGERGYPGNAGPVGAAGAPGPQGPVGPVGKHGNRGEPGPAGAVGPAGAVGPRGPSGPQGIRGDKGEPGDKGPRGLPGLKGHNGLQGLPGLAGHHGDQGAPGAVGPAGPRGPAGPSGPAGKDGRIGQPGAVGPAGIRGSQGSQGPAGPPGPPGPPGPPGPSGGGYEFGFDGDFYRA

- reduction of static adhesion of washed human platelets to fibrous collagen I by anti-GPVI scFv in the presence of EDTA, relative to EDTA alone: 40%
- reduction of static adhesion of washed human platelets to fibrous collagen I by anti-GPVI scFv in the presence of EDTA, relative to control: 70%
Substance: glycoprotein VI (from UniProt Q9HCN6 21-339) (receptor)
